WO2022250107A1 (dated 2022)

Legend:
Experiment in all cases: cell-based or functional assay
[1] = molecular target: S protein of SARS-CoV-2 alpha strain 1 (JPN/QK002/2020, Accession ID EPI_ISL_768526; on infectious virus) (SARS-CoV-2, UniProt P0DTC2 14-1273)
[2] = molecular target: S protein of SARS-CoV-2 delta strain JPN/TKYTK1734/2021 (on infectious virus) (SARS-CoV-2, UniProt P0DTC2 14-1273)
[3] = molecular target: S protein of SARS-CoV-2 alpha strain 2 (Accession ID EPI_ISL_804007; on infectious virus) (SARS-CoV-2, UniProt P0DTC2 14-1273)

Measured: 中和活性 IC50 (inhibition of infection of VeroE6/TMPRSS2 cells)

B1: EV053273 (antibody, V domains shown)
VH: QVQLVQSGAEVKEPGTSVKVSCKASGYIFTGYYIHWVRQAPGQGLEWMGWINPNSGGRNYTQKFQGRVTMTRDKSISTVYMELSGLRSDDTAIYYCARDNSWSTVQFCLDYWGQGTLVTVSS
VL: QSALTQPPSASGSPGQSVTISCTGTSSDVGSYNYVSWYQQYPGKAPKLMIYEVSKRPSGVPDRFSGSKSGNTASLTVSGLQAEDEADYYCSSYGGSNNLVFGGGTKLTVLG
≤ 10 ng/mL: all assays above
